Data reported in publication PMC8184782 (Nature Communications, 2021).

Target: the molecule itself
Test: non-reducing SDS-PAGE; MDFs treated with TSZ, lysed in DISC lysis buffer; loading dye without beta-mercaptoethanol, immunoblot for MLKL; intermolecular disulfide bonds stabilise the trimer

B1: mixed lineage kinase domain-like (MLKL) pseudokinase, mouse, wild type, endogenous (natural protein, mouse (endogenous in MDFs), UniProt Q9D2Y4-2 1-464, looked up)
chain: MDKLGQIIKLGQLIYEQCEKMKYCRKQCQRLGNRVHGLLQPLQRLQAQGKKNLPDDITAALGRFDEVLKEANQQIEKFSKKSHIWKFVSVGNDKILFHEVNEKLRDVWEELLLLLQVYHWNTVSDVSQPASWQQEDRQDAEEDGNENMKVILMQLQISVEEINKTLKQCSLKPTQEIPQDLQIKEIPKEHLGPPWTKLKTSKMSTIYRGEYHRSPVTIKVFNNPQAESVGIVRFTFNDEIKTMKKFDSPNILRIFGICIDQTVKPPEFSIVMEYCELGTLRELLDREKDLTMSVRSLLVLRAARGLYRLHHSETLHRNISSSSFLVAGGYQVKLAGFELSKTQNSISRTAKSTKAERSSSTIYVSPERLKNPFCLYDIKAEIYSFGIVLWEIATGKIPFEGCDSKKIRELVAEDKKQEPVGQDCPELLREIINECRAHEPSQRPSVDGILERLSAVEESTDKKV
modifications: after TSZ: phosphorylated at S345; K63-linked ubiquitin chains, Ub acceptor lysines K51, K77, K172 and K219
notes: MLKL, mouse, endogenous in MDFs; Oligomers are seen only in cells treated with TNF/SM-164/z-VAD-FMK (TSZ); also called mMLKL; MLKL^WT; source: endogenous, mouse dermal fibroblasts (MDFs), in lysate or digitonin membrane fraction, after TSZ treatment
  stoichiometry N: 3
